Broadly, the pIC50 is −log10 of the IC50, conventionally taken in molar units. The pKd is the negative decadic logarithm of the Kd, by convention in mol/L.

The source of these data is the Immune Epitope Database (IEDB).

Experiment [1] has as its target HLA-B*07:02. Briefly: IEDB peptide-MHC binding, purified MHC/competitive/radioactivity; ≥ and ≤ were set here for values at or beyond the usual limits of such assays.
Experiment [2] deals with HLA-A*02:01. The experiment is described as above. The note with it: source organism: Plasmodium falciparum.
Experiment [3] concerns the target HLA-B*07:02. In words: IEDB peptide-MHC binding, purified MHC/competitive/radioactivity; filed as Kd, often an IC50 or EC50 that approximates it; ≥ and ≤ were set here for values at or beyond the usual limits of such assays. The conditions noted are these: source organism: Human immunodeficiency virus 1.
The mark [4] stands for this setting: source organism: Human immunodeficiency virus 1.

pIC50, pKd: −log10 of the molar value.

As to CPKVSFEPI, the pIC50 in experiment [1] (setting [4]) was 6.90.
In the case of GLLGVVSTV, the pIC50 in experiment [2] is 7.61.
As to GPKVKQWPI, in experiment [3], the pKd is 5.25.
Consider HPVHAGPIA, for which the pIC50 in experiment [1] (setting [4]) is 7.24.
As for ILSVSSFLFV, the pIC50 in experiment [2] was 6.68.
On to IPIHYCAPA, for which the pIC50 in experiment [1] (setting [4]) was 6.35.
QPRAPIRPIPT: the pIC50 in experiment [1] (source organism: Human herpesvirus 4 strain B95-8) is 6.96.
As to RPPIFIRRL, the pIC50 in experiment [1] (source organism: human gammaherpesvirus 4) was 7.68.
Turning to TPGIRYQYNI, in experiment [3], the pKd is 5.06.
As to TPYAGEPAPF, the pIC50 in experiment [1] (source organism: Plasmodium falciparum) was 7.51.
Turning to WPLTEEKIKI, the pKd in experiment [3] was 4.71.
YPLASLRSLF: the pIC50 in experiment [1] (setting [4]) was 6.39.
